Results as given in PMC12045048.

Target: AMBRA1 (activating molecule in beclin-1-regulated autophagy), endogenous in MDA-MB-231 cells (UniProt Q9C0C7)
Assay: anti-FLAG co-immunoprecipitation with proteomics (spectral counts)
Details: parent: 0

UniProt Q9C0C7, sequence (Q9C0C7 whole entry): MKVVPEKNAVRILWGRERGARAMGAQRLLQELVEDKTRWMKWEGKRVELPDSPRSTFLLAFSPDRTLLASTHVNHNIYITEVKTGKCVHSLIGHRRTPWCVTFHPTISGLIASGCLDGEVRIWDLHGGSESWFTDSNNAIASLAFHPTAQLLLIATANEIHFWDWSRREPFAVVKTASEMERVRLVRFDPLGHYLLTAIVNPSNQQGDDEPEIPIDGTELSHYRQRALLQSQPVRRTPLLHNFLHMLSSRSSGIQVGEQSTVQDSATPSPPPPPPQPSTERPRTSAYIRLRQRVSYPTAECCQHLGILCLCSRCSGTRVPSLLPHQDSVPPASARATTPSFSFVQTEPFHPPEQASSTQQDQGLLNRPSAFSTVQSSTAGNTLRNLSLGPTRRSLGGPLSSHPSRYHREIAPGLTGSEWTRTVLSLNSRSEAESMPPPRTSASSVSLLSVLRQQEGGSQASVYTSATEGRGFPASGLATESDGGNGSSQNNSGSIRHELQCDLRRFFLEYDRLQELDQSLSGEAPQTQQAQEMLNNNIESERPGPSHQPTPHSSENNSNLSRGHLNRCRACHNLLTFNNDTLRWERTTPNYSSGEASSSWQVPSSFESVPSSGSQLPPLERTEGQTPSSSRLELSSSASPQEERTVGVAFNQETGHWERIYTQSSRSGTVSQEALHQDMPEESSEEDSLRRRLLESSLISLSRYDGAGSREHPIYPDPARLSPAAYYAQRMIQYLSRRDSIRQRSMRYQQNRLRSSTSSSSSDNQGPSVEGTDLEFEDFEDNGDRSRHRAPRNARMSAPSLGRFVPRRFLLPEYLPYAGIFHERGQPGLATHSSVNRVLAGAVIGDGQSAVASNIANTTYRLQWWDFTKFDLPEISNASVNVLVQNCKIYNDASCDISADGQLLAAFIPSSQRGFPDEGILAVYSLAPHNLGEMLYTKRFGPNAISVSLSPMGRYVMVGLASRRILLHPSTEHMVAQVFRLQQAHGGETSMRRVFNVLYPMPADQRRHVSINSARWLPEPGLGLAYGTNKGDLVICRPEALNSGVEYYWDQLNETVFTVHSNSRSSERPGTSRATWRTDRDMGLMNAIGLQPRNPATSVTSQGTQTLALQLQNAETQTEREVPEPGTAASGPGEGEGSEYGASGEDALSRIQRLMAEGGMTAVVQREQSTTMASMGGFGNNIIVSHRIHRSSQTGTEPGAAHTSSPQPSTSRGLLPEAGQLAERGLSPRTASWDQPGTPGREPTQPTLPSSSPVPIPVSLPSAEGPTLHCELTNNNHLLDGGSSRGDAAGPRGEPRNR

## FLAG–Rab40c (wild type) in MDA-MB-231 cells (from UniProt Q96S21) 4A (211-LPLP-216 to 211-AAAA-216)
  other: Spectral Counts (spectral counts): 7
